Experimental data published in patent US20240377400A1, “METHODS FOR TREATING A SUBTYPE OF COLORECTAL CANCER” (Cornell University, priority 2021, published 2024).
“Also recorded” adds a separate entry of the source.

Assays:
[1] = test system: Prkci^fl/flPrkcz^fl/fl; Villin-Cre tumors; assay: scRNAseq, CellphoneDB and multiplex staining of Prkci^fl/flPrkcz^fl/fl; Villin-Cre tumors treated with PEGPH20; assay type: in vivo, mouse
Excerpt: FIG. 10A illustrates experimental design and workflow of scRNAseq. Tumors from Veh (n=5) and PEGPH20-treated mice (n=3) were dissected and digested into single-cell suspensions for sequencing.
Primary antibody dilutions were optimized individually at H220 retrieval using the Leica BondRx Automated IHC stainer and evaluated by a board-certified pathologist for specificity. Multiplexed staining was optimized and then performed using the Automated Opal 7-Color IHC Kit (NEL821001KT) from Akoya Biosciences. A library for spectral separation was generated by staining control tissue with each opal fluor conjugated to CD20. Slides were imaged in the Vectra Polaris Automated Quantitative Pathology Multispectral Imaging System. Exposure times were maximized under the constraint that no pixel saturates the detector (Patel and Rodig, 2020; Patel et al., 2019).
Tumors were minced thoroughly and digested by 0.5 mg/ml Liberase TH (Sigma) for 30 minutes at 37° C. Dead cells were removed by Annexin V (STEMCELL technologies). scRNAseq libraries were generated using the Chromium Single Cell 30 Reagent Kit v2 (10× Genomics). Cells were loaded onto the 10× Chromium Single Cell Platform (10× Genomics) at a concentration of 2,000 cells per μl (Single Cell 3′ library and Gel Bead Kit v.2) as described in the manufacturer's protocol (10× User Guide, Revision B). Generation of gel beads in emulsion (GEMs), barcoding, GEM-RT clean-up, complementary DNA amplification and library construction were all performed as per the manufacturer's protocol. Individual sample quality was checked using a Bioanalyzer Tapestation (Agilent). Qubit was used for library quantification before pooling. The final library pool was sequenced on an Illumina NovaSeq6000 instrument using a S1 flow cell. Average cell recovery for Prkci^f/fPrkcz^f/f; Villin-Cre tumors was […] with a total of 209,907 cells captured at a mean depth of 14,568 read per cell and 895 mean genes per cell.
For scRNA-seq, raw sequence reads were quality-checked using FastQC software. The Cell Ranger version 2.1.1 software suite from 10× Genomics (https://support.10× genomics.com/single-cell-gene-expression/software/downloads/latest) was used to process, align, and summarize unique molecular identifier (UMI) counts against the mouse mm10 assembly reference genome analysis set, obtained from the University of California Santa Cruz (UCSC). Raw, unfiltered count matrices were imported into R for further processing. Raw UMI count matrices were filtered using the Seurat v 3.0 R package (Butler et al., 2018) to remove: barcodes with very low (less than 200, empty wells) and very high (more than 3000, probably doublets) total UMI counts; matrices for which a high percentage of UMIs originated from mitochondrial features (more than 12%); and matrices for which fewer than 250 genes were expressed. Subsequently, the data were normalized using the SCTransform function, regressing out the following variables: total number of UMIs per cell and percentage of mitochondrial UMIs. Following normalization, the principal components were computed. The top principal components were identified using the ElbowPlot function and used for the UMAP dimensionality reduction. For clustering, Seurat was used in combination with Harmony software (Korsunsky et al., 2019) to correct the potential effects of technical differences between sequencing batches. The RunHarmonyo, RunUMAP( ), FindNeighbors( ), and FindClusters( ) functions were run for clustering and the percentage of mitochondrial features was considered to be a source of unwanted variation and was regressed out using the Seurat package. […] For the differential gene expression analysis, the FindMarker( ) function with default parameters was run for comparison between populations. The cell groups were annotated based on the marker gene analysis and canonical markers from the literature. […]

pancreatic cancer = pancreatic cancer patients; cited from earlier work
[2] = scRNAseq tumor epithelial cells

B1: PEGPH20: a PEGylated version of human recombinant PH20 hyaluronidase; clinical-grade pegylated hyaluronidase (Halozyme Therapeutics) (protein, UniProt P38567 36-490, looked up)
Hyaluronidase PH-20: LNFRAPPVIPNVPFLWAWNAPSEFCLGKFDEPLDMSLFSFIGSPRINATGQGVTIFYVDRLGYYPYIDSITGVTVNGGIPQKISLQDHLDKAKKDITFYMPVDNLGMAVIDWEEWRPTWARNWKPKDVYKNRSIELVQQQNVQLSLTEATEKAKQEFEKAGKDFLVETIKLGKLLRPNHLWGYYLFPDCYNHHYKKPGYNGSCFNVEIKRNDDLSWLWNESTALYPSIYLNTQQSPVAATLYVRNRVREAIRVSKIPDAKSPLPVFAYTRIVFTDQVLKFLSQDELVYTFGETVALGASGIVIWGTLSIMRSMKSCLLLDNYMETILNPYIINVTLAAKMCSQVLCQEQGVCIRKNWNSSDYLHLNPDNFAIQLEKGGKFTVRGKPTLEDLEQFSEKFYCSCYSTLSCKEKADVKDTDAVDVCIADGVCIDAFLKPPMETEEPQIFYNASPSTLS
modifications: PEGylated
TGFβ signals provided by myeloid cells and CD4+ Tregs ([1]; CellphoneDB): reduced
communications between TRSC and trophocytes ([1]; CellphoneDB): induced a high number
interaction between Spp1-Ptger4/Cd44 in fibroblasts and Spp1 interactions between telocytes and CD4+ Tregs ([1]; CellphoneDB): eliminates
interactions between TFSCs and telocytes ([1]; CellphoneDB): switching off
secretion of Ccl27a in TRSCs, Ccl28 in TcTAs and residual TFSCs, Ccl25 in TcTAs and TFSCs ([1]; CellphoneDB): increased
secretion of growth signals from telocytes to myeloid cells and CD4+ Tregs ([1]; CellphoneDB): repressed
Rspo1/3 in trophocytes ([1]; CellphoneDB, interact with Lgr5 in TRSC): enriched
presence of TFSCs (ANXA10+ staining) ([1]; IHC): strongly reduced
presence of TRSCs (CLU+ staining) ([1]; IHC): not reduced
ANXA10+/Alcian Blue and ANXA10+/MUC2+ TGCs ([1]; IHC and multiplex imaging): reduced
flow from TcTA to TFSC ([1]; RNA velocity trajectory analysis): total disruption
myeloid cells and CD4+ Tregs in tumors ([1]; VECTRA multiplex imaging): concomitant reduction
B, plasma, and CD8+ T cells infiltrating the tumors ([1]; VECTRA multiplex imaging, CD138 staining): allows CD8+ T cell infiltration; also recorded: strong recruitment
collagens, matrix metalloproteinases, and signatures related to matrix remodeling in the intermediate fibroblasts ([1]; differential gene expression): substantial reduction
vessel normalization signature ([1]; endothelial compartment): increased
angiogenesis, glycolysis, and hypoxia signatures ([1]; endothelium compartment): reduced
signatures related to interferon activation ([1]; endothelium compartment): increased
trophocyte levels (PDGRA−/CD31−/CD34+) ([1]; immunofluorescence, mainly at the crypt-bottom positions): strongly increased
PDGFRA+/NRG1+ fibroblasts at the luminal border ([1]; multiplex immunofluorescence): significantly reduced
expression of several ICIs, including Ctla4, in CD4+ Tregs ([1]; scRNAseq): higher expression
Cd47 immune checkpoint inhibitor expression ([1]; scRNAseq / CellphoneDB): clear increase
signatures corresponding to CD8+ T cells exhaustion, stem-like, and expansion ([1]; scRNAseq CD8+ T cells): enrichment
CD4+ Treg cells ([1]; scRNAseq T cells): reduced
CD8+/Treg ratio ([1]; scRNAseq T cells): increased
proportion of CD8+ Trm and CD8+ Tex cells ([1]; scRNAseq T cells): increased
proportion of tip cells and postcapillary and immature endothelial cells ([1]; scRNAseq endothelial compartment): reduced
proportion of intermediate fibroblast ([1]; scRNAseq fibroblasts): not affected
trophocytes ([1]; scRNAseq fibroblasts): concomitant accumulation
telocyte population ([1]; scRNAseq fibroblasts, HA degradation in vivo): virtually eliminated
proportion of TGCs ([1]; scRNAseq goblet cells): strongly reduced
levels of myeloid cell types (TAN, TAM, IM) ([1]; scRNAseq immune cells): reduced
proportion of T and B cells ([1]; scRNAseq immune cells): increased
proportion of TFSCs [1, 2]: clear reduction
proportion of TRSCs in the persistent tumor cell population [1, 2]: relative enrichment
proportion of TcTAs [1, 2]: limited proportional reduction
vessel disorganization signature ([1]; whole endothelial compartment): reversed
duration of response or progression-free or overall survival (pancreatic cancer): no improvement
response rate in the experimental arm (pancreatic cancer): higher
